Source: PMC3376909 (Molecular Microbiology, 2012)
Values belong to the binder of their own block, whether it stands above or below them.

Target: T1, MinD-N45A (purified) (E. coli, UniProt P0AEZ3 1-270, N45A)
T1 sequence (looked up): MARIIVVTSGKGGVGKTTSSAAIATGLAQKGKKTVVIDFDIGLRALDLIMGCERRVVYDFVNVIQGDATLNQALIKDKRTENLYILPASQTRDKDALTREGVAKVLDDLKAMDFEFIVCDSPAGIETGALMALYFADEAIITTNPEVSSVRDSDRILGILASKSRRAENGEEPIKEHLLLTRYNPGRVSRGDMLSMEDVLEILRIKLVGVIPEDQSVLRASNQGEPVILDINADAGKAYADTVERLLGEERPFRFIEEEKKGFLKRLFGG
Assay: co-sedimentation

binding result: binds
B1: MalE-MinC (natural protein, E. coli, UniProt P18196 1-231, looked up)
chain: MSNTPIELKGSSFTLSVVHLHEAEPKVIHQALEDKIAQAPAFLKHAPVVLNVSALEDPVNWSAMHKAVSATGLRVIGVSGCKDAQLKAEIEKMGLPILTEGKEKAPRPAPTPQAPAQNTTPVTKTRLIDTPVRSGQRIYAPQCDLIVTSHVSAGAELIADGNIHVYGMMRGRALAGASGDRETQIFCTNLMAELVSIAGEYWLSDQIPAEFYGKAARLQLVENALTVQPLN

binding result: binds
B2: MinE-his (purified) (natural protein, E. coli, UniProt P0A734 1-88, looked up)
chain: MALLDFFLSRKKNTANIAKERLQIIVAERRRSDAEPHYLPQLRKDILEVICKYVQIDPEMVTVQLEQKDGDISILELNVTLPEAEELK
